This test has as its target T1, human LY6D (human, UniProt Q14210 21-98, GPI anchor).
T1 construct: whole, on cells; On living cells for FCM, cell ELISA and microscopy; Solubilised from biotinylated cells with surfactant (or released by PI-PLC) for immunoprecipitation and western blot; also called E48 antigen
T1 sequence (looked up): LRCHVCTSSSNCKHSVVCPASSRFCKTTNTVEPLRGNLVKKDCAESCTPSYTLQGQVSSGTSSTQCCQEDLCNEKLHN
Briefly: confocal laser microscopy, cell ELISA and FCM on X-ray-irradiated MCF10A cells; the antigen is identified as LY6D later in the filing.

Experimental: X-ray-irradiated cells and non-irradiated cells were prepared, and antibodies specific to the irradiated cells were screened for by cell ELISA. That is, reactivity of antibody to both cells was examined by ELISA. A blocking solution (5% skim milk/0.05% NaN₃/PBS) was added at 200 μL/well to both cells, followed by blocking at 37° C. for 2 hours. The blocking solution was removed and the cells were washed with PBS. The supernatant of the above antibody expression culture was added at 100 μL/well, followed by reaction at 37° C. for 1 hour. The resultant was washed five times with PBS. Rabbit anti-cp3 (1 μg/mL) diluted with PBS/0.05% Tween 20 was added at 100 μL/well, followed by reaction at 37° C. for 1 hour. The resultant was washed five times with PBS. Anti-Rabbit IgG (H+L)-HRP diluted 2000-fold with PBS/0.05% Tween 20 was further added at 100 μL/well, followed by reaction at 37° C. for 1 hour. The resultant was washed five times with PBS. […] Then, the absorbance at 492 nm was measured by SPECTRAmax340PC (Molecular Devices). Antibodies showing obvious positive reactivity specific to only the irradiated cells were selected and DNA sequences of the phages were analyzed.
Selection of clones from the antibody library was carried out as follows. […] The 20 candidates were analyzed by flow cytometry (FCM).

B1: E33-139 monoclonal antibody (scFv)
scFv: MAEVQLVESGGGLVQPGRSLRLSCAASGFTFDDYAMHWVRQAPGKGLEWVSGISWNSGSIGYADSVKGRFTISRDNAKNSLYLQMNSLRAEDTALYYCAKTGILDAFDIWGQGTTVTVSRGGGGSGGGGSGGGGSMAQSVLTQPPSVSGAPRQTVTISCSGSSSNIGQNSVTWYQRLPGEAPKLLIYYDDLLHSGVSDRFSGSKSGTSASLAISGLQSEDEAEYYCASWDDSLKGPVFGGGTKLTVLGQPKAAPSVTLFPPSSEELQANKATLVCLISDFYPGAVTVAWKADSSPVKAGVETTTPSKQSNNKYAASSYLSLTPEQWKSHKSYSCQVTHEGSTVEKTVAPTECSAR
notes: Human phage antibody from the AIMS5 library; No result is reported for the IgG; not shown: clones were tested as scFv-CL fused to cp3 or to the protein A domain (scFv-CL-P)
Regarding B1, the binding result was “binds”.

The record behind these values is patent US20140004536A1 (PERSEUS PROTEOMICS, published 2014).
